# Results published in the nanobody polyreactivity screen of Harvey et al. (2022).
# Experiment: yeast display, Sf9 membrane polyspecificity reagent, FACS + sequencing; frameworks hold sequencing errors
# Procedure, shortened: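 Using colony PCR, genes from sorted yeast display clones were amplified, then sequenced on MiSeq at 2 × 250 and filtered by CDR length. The clones had been stained with 10% biotinylated, detergent-solubilized Sf9 membrane reagent for 1 hour at 4 °C and sorted by FACS into low and high (top ~1%) gates on anti-HA and streptavidin fluorescence. Polyreactivity labels come from the gate of origin.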
row,Sequence,polyreactivity (PSR sort gate)
1,QVQLVESGGGLVQAGGSLRLSCAASGITFNYYVMGWYRQAPGKERELVAAIRRGGSTNYADSVKGRFTISRDNAKNPVYLQMNSLKPEDTAVYYCAARTYRGLAYDYWGQGTQVTVSS,high polyreactivity
2,QLQLVESVGGVVQPGGSLRLSSAASGSNFRYYAIGWYRQAPGKERELVAAINWSGGSTYYADSVKGRVTISRDNAKNTVYLQMNSLKPEDTAVYYWAASWYYCRRYDYWGQGTQVTVSS,high polyreactivity
3,QVQLVESGGGLVQAGVSLRISCAASGFTFSRNAMGWYRQAPGKESELVAAITWSGGRSYYADSVKGRFTISGDNAKNPVYLQMNSLKPEDTAVYYCAARKYPLRSAYDYWGPGTQVTVSS,low polyreactivity
4,QVQLVESGGGLVQSGGSLRLSCAASGIIFLDYVMVWYRQAPGKERELVAAISLSAGSTNYADSVKGRFTISRDNAKNTVYLQMNSLKPEDTAVYYCAAEVLAVRDDGYRSDEMDYWGQGTQVTVSS,low polyreactivity
5,QVQLVESGGGLVQAGRSLPLSCAASGRTFRPNAMGWYRQAPGKERELVAVSSWRGGRTYYADSVKGRFTISRDNAKNTVYLQMNSLKPEDTAVYYCAAGPTSRRWYDYWGQGTQVTVSS,high polyreactivity
6,QVQLVESGGGLFQAGGSLRLSCAASGRTFWAYAMGWYRQAPGKERELVAAITTSRGSTNYADSVKGRFTISRDNAKNTVYLQMNSLKPEDTAVYDCNADPTYHVVIGVGYWGQGTQVTVCS,low polyreactivity
7,QVQLVESGGGLVQAGGSLRLSCAASGSTFYIYVMGWYRQAPGKERELVARISSSGGSTYYADSVKGRFTISRDNAKNTVYLQMNSLKPEDTAVYYCNVDYGAWYDYWGQGTQVTVSS,low polyreactivity
8,QVQLVESGGGLVQAGGSLRLSCAASGRIFNRNAMGWYRQAPGKERELVAAITRGGRTNYADSVKGRFTISRDNAQNTVYLQMNSLKPEDTAVYYCAAAYYGSHGRYDYWVQGTQVTVSS,high polyreactivity
9,QVQLVESGGGLVQAGGSLRLSCAASGLIFRAYAMGWSRPAPGKERELVAAITSSSGSTYYADSVKGRFTISRDNAKNTVYLQMNSLTPEDTAVYYCNAYSTFGWYDYWGQGTQVTVSS,low polyreactivity
10,QVQLVESGGGLVQAGGSLRLSCAASGIIIAYYAMGWYRQAPGKERVLVATISSGGRTKYADSVKGRFTISRDNAKNTVYLQMNSLKPEDTAVYYCNTDRYFRRYYWYDYWGQGTQVTVSS,high polyreactivity
11,QVQLVESGGGLVQAGGSLSLSCAASGSTFAYYAMGWYRQAPGKERELVAGITWTGGSTYYADSVKGRFTISRDNAKNTVYIQMNSLKPEDTAVYYCAVTYPISEFYWGVKDRYDYWGQCTQVTVSS,low polyreactivity
12,QVQLVESGGGLVQAGGSLRLSCAASGSIFHPNAMGWYRQAPGKERELVAAITKSGGSTYYADSVKGRFTISRDNAKNTVYLQMNSLKPEDTAVYYCAKVSRATVTYDYWGQGTQVTVSS,high polyreactivity
13,QVQLVESGGGLVQAGGSLRLSCAASGGIFKRNTMGWYRQAPGKERELGAGISWTGGRTYYADSVKGRFTISRDTAKNTVYLQMNSLKPEDTAVYYCAAKPLQGVRRVEYWGQGTQVTVSS,high polyreactivity
14,QVQLVESGGGLVQAGGSLRLSCAASGSTFKFYAMGWYRQAPGKERELVAAISRSGGSTYYADSVKGRFTLSRDNAKNTVYLQMNSLKPEDTAGYYCAAERTLKSDYWGQGTQVTVSS,high polyreactivity
15,QVQLVESGGGLFQAGGSLRLSCAASGITFPDYAMGWYRQAPGKERELVATISSSGGNTYYADSVKGRFTISRDNAKNTVYLQMNSLKPEDTAVYYCATVSYYLGYDYWGQGTQVTVSS,low polyreactivity
16,QVQLVESGGGLVQARGSLRLSCAASGSTFEANSMGWYRQAPGKERELVAVLTWTGGSTYYADSVKGRFTISRDNAKNTVNLHMISLNPEDTAVEYCAADGVLPGRFFWPAHEYDYWGQGTQVTVSS,low polyreactivity
17,QVQLVESGGGLVQAGGSLRLSCAASGSTFGYNAMGWYRQAPGKERELVAAITWTGASTYYADSVKGRFTISRDIAKNTVYLQMNSLKPEDTAVYYCNRVGYQSMNYWGQGTQVTVSS,low polyreactivity
18,QVQLVESGGGLVQAGGSLRLSCAASGSIFSYNAMGWYRQAPGKERELVADITGSGGSTYYADSVKGRFTISRDNAKNTVYLQMNSLKPEDTAVYYCNAVGQYYYLGYDYWGQGTQVTVSS,low polyreactivity
19,QVQLQESGGGLVQAGGSLRLSCAASGNISVTGFMGWYRQAPGKERELVASIGIGGTTYYADSVKGRFSISRDNAKNTVYLKMNSLKQEDTSVYYCAARYLYYAYSYWGQGTQVTVSS,low polyreactivity
20,QVQLVESGGGLVQAGGSLRLSCDASGRTFKYYAMGWYRQAPGKERELVAVITSGGSTYYADSVKGRFTISRDNAKNTVYLQMNSLKPEDTAVYYCAKSSHAREYYYWGQGTQVTVSS,low polyreactivity
21,QVQLVESGGGLVQAGGSLRLSCAASGLTFYYYVMGWYRQAPGKERELVAAISKSGGRTYYADSVKGRFTISRDNAKNTVYLQMNSLKPEDTAVYYCAALYTPNYTAYDSWGQGTQVTVSS,high polyreactivity
22,QVQLVESGGGLVQAGGSLRLSCAASGFTIFGYAMGWYRQAPGKERELVAAISTIDGDTYYADSVKGRFTISRDNAKNTVYLQMNSLKPEDTAVYYSAADDYIDGDDYWGQGTQVTVSS,low polyreactivity

row,Sequence,polyreactivity (PSR sort gate)
1,QVQLVESGGGLVQAGGSLRLSCAASGSIFASYVMGWSRQAPGKERELVAAISYSDGRTYYADSVKGRFTISRDNAKNTVYLQMNSLKPEDTAVYYCAADRHARLVIGYRRLRYEYWGQGTQVTVSS,low polyreactivity
2,QVQLVESGGGLVQAGGSLRLSCAASGFIFRWNAMGWYRQSPGKERELVATISNGGSTYYADSVKGRFTISRDNAKNSVYLQMNSLKPEDTAVYYCAADYWYFSISITDYDYWGQGTQVTVSS,high polyreactivity
3,QVQLVESGGGLVQAGGSLRLSCAASGRTFSYYAKGWYRQAPGKESELVSAIRVSGGITYYADSVKGRFTISRDNAKNTVYLQMNTLKPEDTAVYYCNAGVDFIGGRYLTYVYWGQGTQVTVSW,low polyreactivity
4,QVQLVESGGGLVQAGGSLRLSCADSGRILTFNAMGWYRQAPGKERELVASISNGGSTNYADSVKGRFTISRDNAKNTVYLQMNSLKPEDTAVYYCDADWRQGMWYGYYYWGQGTQVTVSS,low polyreactivity
5,QDQLVESGGGLVQAGASLRLSCAASGSIFYHNTMGWYRQAPGKERELLTYYADSVKRRFTISRDNAKNTVYLQMNSLKPEDTAVYYCAASPVSRTGPGDYDYWGQGTQVTVSS,low polyreactivity
6,HVQLVETVGGLVQAGGSLRLSCAASGSNFDPNAMGWYRQAPVKERELVAAISWSGGSTYYADSVKGRFTISRDNAKNNVYLQMHSLKPEDTAVYYCNAQFYDSYSYTNDYWGQGTQVTVSS,low polyreactivity
7,QVQLVESGGGLVQAGGSLRLSCAASGSIFSSYAMGWYRQAPGKEREFVAAINNNDGGTDYADSVKGRFTISRDNAKNTVYLQMNSLKPEDTAVYYCAADYTRYVQTTYDYWGQGTQVTVSS,low polyreactivity
8,QVQLVESGGGLVQAGGSLRLSCAASGGSFNNYAMGWYRQAPGKERELVAAITYSGVRTNYADSVKGRFTISRDNAKNTVYLQMNSLKPEDTAVYYCAADGLSNVRQMDYWGQGTQVTVSS,low polyreactivity
9,QVQLVESGGGLVQAGGSLRLSCAASGFTLYAYVMGWYRQAPGKERELVAAISRSGGSTYYADSVKGRFTISRDNAKNTVYLQMNSLKPEDTAVYYCAAQSKYYQYYSWGQGTQVTVSS,high polyreactivity
10,QVQLVESGGGLVQAGGSLRLSCAASGRIFFYNDMGCYRQAPGKERELVASISSGTSTYYADSVKGRFTISRDNAKNTVYLQMNSLKPEDTAVYYCATGRPWHYSSATYDYWGQGTQVTVSS,low polyreactivity
11,QVQLVESGGGLVQAGGSLRLSCAASGSIFGFYAMGWYRQAPGKERELVASISSSGDSTYYADSVKGRFTISRDNAKNTVYLQINSLKPEDTAVYYCAAVVYDIYGYEFDYWGQGTQVTVSS,low polyreactivity
12,QVQHVESGGGLVQAGGSLRLSCAASGAIFWGYAMGWYRQAPGKERELVATISWTGGSTYYADSVKGRFTISRDNAKNTVYLQMNSLKPEDTAVYYCAKVIIHYYYLVNLVDVDYWGQGTQVTVSS,low polyreactivity
13,QVQLVESGGGLVQAGGSLRLSCAASGITFAYYAMGWYRQAPGKERELVAAIRGGTNTYYADSVKGRFTISRDNAKYTVYLQMNSLKPEDTGVYYCAVRLYLEMDYWGQGTQVTVSS,high polyreactivity
14,QVQLVESGGGLVQAGGSLRLSCAASGRIFYSYAMGWYRQAPGKERELVAAIDESDGSTYYADSVKGRFTISRDNAKNTVYLQMNSLKPEDTAVYYCAAGYLDVLWLLDLLQLYGYWGQGTQVTVSS,low polyreactivity
15,QDQLVESGGGLVQAGGSLRLSCAASGRTFRYNAMGWYRQAPGKERELVAAISGRGSSTYYADSVKGRFTISRDNAKNTVYLQMNSLKPEETAVYYCAALPASVRRPGWHDYWGQGTQVTVSS,high polyreactivity
16,QLQLEESRGGLVQAGGSLRLSCAASGGTCFSYAMGCYRQAPGKERELVAGIRNGGSTKYADSVKGRFTISRDNAKNTVYLQMNSLNPEDTAVYYCAARYYRPYTSSWAHNYRLDYCGQGTQVTVSS,high polyreactivity
17,QVQLVESGGGLVQAGGSLRLSCAASGNTIGSNAMGWYRQAPGKERELVATISKRGGSTYYADSVKGRFTISRDNAKNTVYLQMNSLKPEDTAVYYCATTSTRYWAFSSRPDYRDDYWGQGTQVTVSS,high polyreactivity
18,QVQLVESGGGIVQAGGSLRLSCAASGLIFFTYAMGWYSQAPGKERELVAAITTGGSTNYADSVKGRFTISRDNAKKTVYLQMNSLKPEDTAVYYCAAQRVSVLLFVRHDYWGQGTQVTVSS,low polyreactivity
19,QVQLVESGGGLVQAGGSLRLSCAASGRTFNSYPMGWYRQAPGTERELVAAINYRGTSTYYSDSVKGRFTISRDNAMNTVYLQMNSLKPEDTAVYYCNARQTRSSRINYPEGIYNYWGQGTQVNVSS,high polyreactivity
20,QVQLVESGGGLVQAGGSLRLSCAASGLTFPWYAMGWYRQAPGKERELVASINSSTGSTYYADSVKGRFTISRDNAKNTVYLQMNSLKPEDTAVYYCAAVEYGNMDWGQGTQVTVSS,low polyreactivity
21,QVQLVDTGGGLVQAGGSLRFSCAASGSIFQVYAMGWYRQAPGKERELVASITSSGGSTYYADSVKGRFTISRDNAKNTVYLQMNSLKTEDTAVYYCADDQWSQDYDYWGQGTQVTVSS,low polyreactivity
